According to PMC6468047, “Cannabinoid CB1 and CB2 Receptor-Mediated Arrestin Translocation: Species, Subtype, and Agonist-Dependence” (Frontiers in Pharmacology, 2019):

Assays:
[1] = target: human vasopressin receptor 2 (3HA-hV2R) (human) (UniProt P30518)
[2] = target: human cannabinoid receptor 1 (pplss-3HA-hCB1) (human) (UniProt P21554)
[3] = target: human cannabinoid receptor 2 (3HA-hCB2) (human) (UniProt P34972)
CB2 (hCB2) [4] = target: T1, CB2 (hCB2) (Homo sapiens, UniProt P34972); experiment: BRET human β-arrestin-1 plasma membrane translocation; assay type: cell-based; conditions: 10 µM; HEK-293, 37 °C, single concentration 10 μM, no GRK2 co-expression
T1 construct: gene CNR2; 3HA-hCB2 in pEF4a: N-terminal 3xHA tag, untagged C-terminus; transient in HEK-293 with Rluc8-arrestin and mem-linker-Citrine reporters
From the text: BRET human β-arrestin-1 plasma membrane translocation on CB2 (hCB2)

CB2 (hCB2) [5] = target: T1, CB2 (hCB2); experiment: BRET human β-arrestin-2 plasma membrane translocation; assay type: cell-based; conditions: read-out: CB2 / logEC50 ± SEM (converted)

human cannabinoid receptor 1 (pplss-3HA-hCB1) (human), sequence (P21554 whole entry): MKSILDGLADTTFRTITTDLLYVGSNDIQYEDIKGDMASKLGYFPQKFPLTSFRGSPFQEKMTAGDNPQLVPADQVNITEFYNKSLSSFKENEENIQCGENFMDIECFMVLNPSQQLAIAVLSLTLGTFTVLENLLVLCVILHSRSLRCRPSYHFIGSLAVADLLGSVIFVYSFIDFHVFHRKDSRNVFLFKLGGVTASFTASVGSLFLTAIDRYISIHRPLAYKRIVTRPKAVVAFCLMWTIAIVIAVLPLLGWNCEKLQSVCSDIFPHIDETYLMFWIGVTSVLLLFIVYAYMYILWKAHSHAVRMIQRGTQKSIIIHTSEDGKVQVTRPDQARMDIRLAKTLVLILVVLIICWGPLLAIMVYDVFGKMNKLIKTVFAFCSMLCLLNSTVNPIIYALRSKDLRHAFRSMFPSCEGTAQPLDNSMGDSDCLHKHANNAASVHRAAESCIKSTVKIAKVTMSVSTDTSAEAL
human cannabinoid receptor 2 (3HA-hCB2) (human), sequence (P34972 whole entry): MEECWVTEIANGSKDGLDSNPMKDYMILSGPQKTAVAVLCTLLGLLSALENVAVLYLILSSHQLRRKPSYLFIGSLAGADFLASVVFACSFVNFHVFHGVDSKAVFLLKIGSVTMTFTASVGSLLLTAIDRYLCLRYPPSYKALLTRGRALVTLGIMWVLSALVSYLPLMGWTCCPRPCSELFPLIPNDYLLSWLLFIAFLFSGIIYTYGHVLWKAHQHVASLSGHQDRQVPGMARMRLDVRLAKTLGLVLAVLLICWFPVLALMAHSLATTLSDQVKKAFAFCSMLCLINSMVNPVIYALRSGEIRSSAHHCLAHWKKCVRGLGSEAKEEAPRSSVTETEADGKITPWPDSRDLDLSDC
human β-arrestin-2 (Rluc8-hβ-arrestin-2-Sp1), sequence (P32121 whole entry): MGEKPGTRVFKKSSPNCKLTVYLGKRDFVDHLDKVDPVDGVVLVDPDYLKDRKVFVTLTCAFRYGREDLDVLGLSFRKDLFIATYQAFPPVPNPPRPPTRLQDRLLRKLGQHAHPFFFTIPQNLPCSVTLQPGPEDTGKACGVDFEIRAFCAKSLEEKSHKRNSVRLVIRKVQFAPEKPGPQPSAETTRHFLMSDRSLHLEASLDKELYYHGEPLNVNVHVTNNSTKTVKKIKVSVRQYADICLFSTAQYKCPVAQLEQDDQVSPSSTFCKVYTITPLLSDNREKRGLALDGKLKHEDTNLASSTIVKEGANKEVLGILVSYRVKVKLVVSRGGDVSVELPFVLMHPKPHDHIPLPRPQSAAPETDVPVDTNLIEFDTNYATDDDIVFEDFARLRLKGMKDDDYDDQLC
T1 sequence (P34972 whole entry): as the sequence (P34972 whole entry) above

human β-arrestin-2 (Rluc8-hβ-arrestin-2-Sp1) (from UniProt P32121 1-409) (natural protein)
Emax, arrestin translocation to the plasma membrane (BRET, AUC of 25 min); agonist AVP [1]: 306 ΔBRET.sec | Emax, arrestin translocation to the plasma membrane (BRET, AUC of 25 min); agonist 2-AG [2]: 236 ΔBRET.sec | Emax, arrestin translocation to the plasma membrane (BRET, AUC of 25 min); agonist 2-AG; GRK2 co-expressed [2]: 150 ΔBRET.sec | Emax, arrestin translocation to the plasma membrane (BRET, AUC of 25 min); agonist AEA [2]: 47.9 ΔBRET.sec | Emax, arrestin translocation to the plasma membrane (BRET, AUC of 25 min); agonist CP55,940 [2]: 83.7 ΔBRET.sec | Emax, arrestin translocation to the plasma membrane (BRET, AUC of 25 min); agonist CP55,940; GRK2 co-expressed [2]: 120 ΔBRET.sec | Emax, arrestin translocation to the plasma membrane (BRET, AUC of 25 min); agonist WIN55,212-2 [2]: 164 ΔBRET.sec | efficacy at 10 μM BAY (NA, not active; no curve could be fitted), arrestin translocation to the plasma membrane (BRET, AUC of 25 min) [2]: 15.3 ΔBRET.sec | efficacy at 10 μM THC (NA, not active; no curve could be fitted), arrestin translocation to the plasma membrane (BRET, AUC of 25 min) [2]: 5.9 ΔBRET.sec | Emax, arrestin translocation to the plasma membrane (BRET, AUC of 25 min); agonist 2-AG [3]: 31.3 ΔBRET.sec | Emax, arrestin translocation to the plasma membrane (BRET, AUC of 25 min); agonist 2-AG; GRK2 co-expressed [3]: 68.7 ΔBRET.sec | Emax, arrestin translocation to the plasma membrane (BRET, AUC of 25 min); agonist CP55,940 [3]: 37.4 ΔBRET.sec | Emax, arrestin translocation to the plasma membrane (BRET, AUC of 25 min); agonist CP55,940; GRK2 co-expressed [3]: 70.4 ΔBRET.sec | Emax, arrestin translocation to the plasma membrane (BRET, AUC of 25 min); agonist JWH-015 [3]: 34 ΔBRET.sec | Emax, arrestin translocation to the plasma membrane (BRET, AUC of 25 min); agonist JWH-133 [3]: 37.8 ΔBRET.sec | Emax, arrestin translocation to the plasma membrane (BRET, AUC of 25 min); agonist WIN55,212-2 [3]: 24.4 ΔBRET.sec | efficacy at 10 μM THC (NA, not active; no curve could be fitted), arrestin translocation to the plasma membrane (BRET, AUC of 25 min) [3]: -3.8 ΔBRET.sec

CCCCCc1cc(O)c2c(c1)OC(C)(C)[C@@H]1CCC(C)=C[C@@H]21 [THC]
CB2 / Response ± SEM (ΔBRET.sec) (CB2 (hCB2) [4]): 14.4 ± 2.8 ΔBRET.sec

CCCCC/C=C\C/C=C\C/C=C\C/C=C\CCCC(=O)OC(CO)CO [2-AG]
EC50 (CB2 (hCB2) [5]): 1860 nM
